Source: the Immune Epitope Database (IEDB)

Biological target: HLA-A*02:01
Experiment: IEDB peptide-MHC binding, cellular MHC/competitive/fluorescence; ≥ and ≤ were set here for values at or beyond the usual limits of such assays
Conditions: source organism: Human herpesvirus 5 strain AD169

Sequence	IC50 [µM]
ALFFFDIDL	2
DIYRIFAEL	12
GLSISGNLL	16
ILARNLVPMV	1
LLQTGIHVRV	5
MLNIPSINV	2.5
NLLMNGQQI	5
RLLQTGIHV	2
SIYVYALPL	5
VLCPKNMII	12
YLESFCEDV	16
